Measured values from US20100243450.

Biological target: Mef2c (UniProt Q06413)
Details: NECEEM; 25 mM tetraborate pH 9.4, room temperature; koff 0.022 s-1, kon 45 M-1 s-1

Sequence of Mef2c (Q06413 whole entry): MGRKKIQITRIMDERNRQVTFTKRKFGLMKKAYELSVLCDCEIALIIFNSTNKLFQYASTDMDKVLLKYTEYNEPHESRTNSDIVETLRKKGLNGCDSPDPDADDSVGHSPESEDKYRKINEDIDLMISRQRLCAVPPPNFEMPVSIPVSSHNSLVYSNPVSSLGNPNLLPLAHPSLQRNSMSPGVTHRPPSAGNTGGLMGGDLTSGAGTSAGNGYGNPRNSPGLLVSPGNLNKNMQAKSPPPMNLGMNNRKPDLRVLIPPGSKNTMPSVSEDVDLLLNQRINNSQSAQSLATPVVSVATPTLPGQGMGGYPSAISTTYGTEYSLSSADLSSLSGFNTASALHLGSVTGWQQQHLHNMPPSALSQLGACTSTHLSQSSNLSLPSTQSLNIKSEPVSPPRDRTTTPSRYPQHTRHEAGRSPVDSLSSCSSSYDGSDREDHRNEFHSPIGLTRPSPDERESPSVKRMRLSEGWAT

Sequence: CCTGCCACGCTCCGCTCTAAAAATAA (double strand) [Mef2c target dsDNA 26 bp]
- Kd: 480 µM
